Source: patent publication US7235238 (IMMUNEX, dated 2007)

Key:
[1] = molecular target: chimeric receptor: extracellular and transmembrane portions of the mouse type I IL-1 receptor fused to the cytoplasmic portion of human 2F1 (mouse; human) (UniProt P13504); assay: cell-based or functional assay; conditions: scale: fold of the level mediated by the intact mouse type I IL-1R
[2] = molecular target: T1, 2F1/Fc soluble fusion protein (human 2F1 extracellular domain joined to the Fc region of a human IgG1) (human, UniProt Q13478 20-329); assay: BIAcore; 2F1/Fc captured by anti-human IgG Fc serum, ligand at several different concentrations
T1 construct: Captured on the BIAcore chip by goat anti-human IgG Fc serum; also called human 2F1/Fc fusion protein; 2F1/Fc protein; not shown: Fc region of a human IgG1; made by procedures analogous to Baum et al. 1994
T1 sequence: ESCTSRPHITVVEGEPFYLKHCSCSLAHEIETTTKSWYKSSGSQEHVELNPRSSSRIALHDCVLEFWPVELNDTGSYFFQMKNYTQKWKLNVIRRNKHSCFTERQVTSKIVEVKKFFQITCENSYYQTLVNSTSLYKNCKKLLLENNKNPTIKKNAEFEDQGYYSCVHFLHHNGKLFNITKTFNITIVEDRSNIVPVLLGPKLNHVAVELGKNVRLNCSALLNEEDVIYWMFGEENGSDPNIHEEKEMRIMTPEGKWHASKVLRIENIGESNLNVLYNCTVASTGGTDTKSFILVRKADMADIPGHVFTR
Description: (§1) A BIAcore biosensor (Pharmacia Biosensor AB, Piscataway, N.J.) was used to examine binding of IL-1 ligands to the human 2F1/Fc fusion protein, using procedures essentially as described in Arend et al. (*J. Immunol.* 153: 4766–4774, 1994). Briefly, a goat anti-human IgG serum directed against the Fc region (Jackson Immunoresearch Laboratories, Inc., West Grove, Pa.), covalently coupled to the dextran matrix of a hydrogel chip, was used to capture the human 2F1/Fc protein. The 2F1/Fc fusion protein thus was immobilized on the BIAcore chip. The three IL-1 ligands, at several different concentrations, were reacted with the captured protein, and the change of mass per unit area over time was measured.

[3] = molecular target: T2, soluble type I IL-1RI/Fc fusion protein (extracellular domain of human type I IL-1R fused to the Fc region … (human, UniProt P14778 18-336)); assay: BIAcore; Fc fusion captured by anti-human IgG Fc serum
T2 construct: extracellular domain; Positive control in the BIAcore assay; also called human type I IL-1R/Fc fusion protein; not shown: Fc region polypeptide (human IgG1, as for 2F1/Fc)
T2 sequence (looked up): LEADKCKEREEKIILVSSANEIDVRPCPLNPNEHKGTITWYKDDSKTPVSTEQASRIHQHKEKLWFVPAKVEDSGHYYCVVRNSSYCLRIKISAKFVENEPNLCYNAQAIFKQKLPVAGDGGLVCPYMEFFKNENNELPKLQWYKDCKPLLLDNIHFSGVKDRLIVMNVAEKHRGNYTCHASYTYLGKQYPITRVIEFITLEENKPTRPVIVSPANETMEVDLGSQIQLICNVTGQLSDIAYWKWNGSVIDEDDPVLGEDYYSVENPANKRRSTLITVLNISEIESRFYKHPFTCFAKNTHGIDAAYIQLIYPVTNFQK
Description: as §1

chimeric receptor: extracellular and transmembrane portions of the mouse type I IL-1 receptor fused to the cytoplasmic portion of human 2F1 (mouse; human), sequence (P13504 other isoform, or with tags, fused parts or gaps mutant, form in doubt): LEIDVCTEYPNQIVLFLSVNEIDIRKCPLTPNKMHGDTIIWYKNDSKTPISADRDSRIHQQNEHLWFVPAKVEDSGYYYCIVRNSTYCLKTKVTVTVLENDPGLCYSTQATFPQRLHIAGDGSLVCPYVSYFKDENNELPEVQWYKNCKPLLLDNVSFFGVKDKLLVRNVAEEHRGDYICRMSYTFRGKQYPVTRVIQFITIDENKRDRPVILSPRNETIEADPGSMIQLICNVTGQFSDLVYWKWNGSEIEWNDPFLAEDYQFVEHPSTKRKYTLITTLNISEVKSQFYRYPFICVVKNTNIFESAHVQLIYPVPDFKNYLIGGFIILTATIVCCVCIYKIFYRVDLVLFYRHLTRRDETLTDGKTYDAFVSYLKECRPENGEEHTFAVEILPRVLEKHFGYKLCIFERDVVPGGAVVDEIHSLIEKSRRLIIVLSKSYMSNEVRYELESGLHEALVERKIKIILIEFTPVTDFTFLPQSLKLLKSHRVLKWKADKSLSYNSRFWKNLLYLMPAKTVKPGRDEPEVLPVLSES

induction of IL-8 promoter function (IL-2Rα reporter, COS7 cells) [1]: 0.5
binding result [2]: no binding
binding result [3]: binds
B1: human IL-1α (ligand, UniProt P01583 113-271, looked up)
chain: SAPFSFLSNVKYNFMRIIKYEFILNDALNQSIIRANDQYLTAAALHNLDEAVKFDMGAYKSSKDDAKITVILRISKTQLYVTAQDEDQPVLLKEMPEIPKTITGSETNLLFFWETHGTKNYFTSVAHPNLFIATKQDYWVCLAGGPPSITDFQILENQA
